The text below walks through data of patent US20250034594A1, “RNA-GUIDED GENOME RECOMBINEERING AT KILOBASE SCALE” (THE BOARD OF TRUSTEES OF THE LELAND STANFORD JUNIOR …, priority 2021, published 2025).

The test system of test [1] is DYNLT1 locus. Description: mKate knock-in gene-editing assay, RecE/RecT homologs, DYNLT1 locus. Type of test: cell-based, human. The following applies: HEK293 cells, MCP fusion, n=3. As to the method:
(§1) Transfection HEK293T cells were seeded into 96-well plates (Corning) 12-24 hours prior to transfection at a density of 30,000 cells/well, and 250 ng of total DNA was transfected per well. HeLa and HepG2 cells were seeded into 48-well plates (Corning) one day prior to transfection at a density of 50,000 and 30,000 cells/well respectively, and 400 ng of total DNA was transfected per well. Transfections were performed with Lipofectamine 3000 (Life Technologies) following the manufacturer's instructions.
(§2) Fluorescence-activated cell sorting (FACS) mKate knock-in efficiency was analyzed on a CytoFLEX flow cytometer (Beckman Coulter; Stanford Stem Cell FACS Core). 72 hours after transfection, cells were washed once with PBS and dissociated with TrypLE Express Enzyme (Thermo Fisher Scientific). Cell suspension was then transferred to a 96-well U-bottom plate (Thermo Fisher Scientific) and centrifuged at 300×G for 5 minutes. After removing the supernatant, pelleted cells were resuspended with 50 μl 4% FBS in PBS, and cells were sorted within 30 minutes of preparation.
(§3) 15 different species of microbes having RecE/RecT proteins were selected for a screen of various RecE and RecT proteins across the microbial kingdom (Table 3). Each protein was codon-optimized and synthesized. As previously described for E. coli RecE/RecT based REDIT systems, each protein was fused via E-XTEN linker to the MCP protein with additional nuclear localization signal. mKate knock-in gene-editing assay was used to measure efficiencies at DYNLT1 locus (FIG. 26A, Table 4) and HSP90AA1 locus (FIG. 26B, Table 4).

Test [2] concerns HSP90AA1 locus. Description: mKate knock-in gene-editing assay, RecE/RecT homologs, HSP90AA1 locus. The following applies: HEK293 cells, MCP fusion, n=3. It is filed as cell-based, human. The procedure:
as §1, §2, §3

B1: Homolog_T3: RecT, Pantoea dispersa; SEQ ID NO: 119 (protein, listed as Pantoea dispersa)
chain: MSNQPPLATADLQKTQQSNQVAKTPEQTLVGFMNQPAMKSQLAAALPRHMTADRMIRIVTTEIRKTPALAQCDQSSFIGAVVQCSQLGLEPGSALGHAYLLPFGNGRSKSGQSNVQLIIGYRGMIDLARRSGQIVSLSARVVRADDEFSFEYGLDENLIHRPGDNESAPITHVYAVARLKDGGTQFEVMTAKQVEKVKAQSKASSNGPWVTHWEEMAKKTVIRRLFKYLPVSIEMQKAVVLDEKAESDVDQDNASVLSAEYSVLESGTGE
As to B1, the “Mean mKate+ (%), DYNLT1” value in test [1] came to 11.9000%. For the same molecule, the “Mean mKate+ (%), HSP90AA1” value in test [2] was found to be 7.1200%.

B2: Homolog_T9: RecT, Bacillus sp. MUM 116; SEQ ID NO: 129 (protein, listed as Bacillus sp.)
chain: MSKQLTTVNTQAVVGTFSQAELDTLKQTIAKGTTNEQFALFVQTCANSRLNPFLNHIHCIVYNGKEGATMSLQIAVEGILYLARKTDGYKGIECQLIHENDEFKFDAKSKEVDHQIGFPRGNVIGGYAIAKREGFDDVVVLMESNEVDHMLKGRNGHMWRDWFNDMFKKHIMKRAAKLQYGIEIAEDETVSSGPSVDNIPEYKPQPRKDITPNQDVIDAPPQQPKQDDEAAKLKAARSEVSKKFKKLGIVKEDQTEYVEKHVPGFKGTLSDFIGLSQLLDLNIEAQEAQSADGDLLD
Take B2: in test [1], the “Mean mKate+ (%), DYNLT1” value is 8.1300%. The “Mean mKate+ (%), HSP90AA1” value in test [2] was determined as 6.2000%.

B3: Homolog_T4: RecT, Type-F symbiont of Plautia stali; SEQ ID NO: 121 (protein)
chain: MSNQPPIASADLQKTQQSKQVANKTPEQTLVGFMNQPAMKSQLAAALPRHMTADRMIRIVTTEIRKTPALATCDQSSFIGAVVQCSQLGLEPGSALGHAYLLPFGNGRSKSGQSNVQLIIGYRGMIDLARRSGQIVSLSARVVRADDEFSFEYGLDENLIHRPGDNEDAPITHVYAVARLKDGGTQFEVMTAKQVEKVKAQSKASSNGPWVTHWEEMAKKTVIRRLFKYLPVSIEMQKAVVLDEKAESDVDQDNASVLSAEYSVLEGDGGE
modifications: Type-F symbiont of Plautia stali
Turning to B3, in test [1], the “Mean mKate+ (%), DYNLT1” value came out at 10.4433%. Moreover, the “Mean mKate+ (%), HSP90AA1” value in test [2] is 5.7567%.

B4: Homolog_E8: RecE, Shewanella putrefaciens; SEQ ID NO: 128 (protein, listed as Shewanella putrefaciens)
chain: MGTALAQTISLDWQDTIQPAYTASGKPNFLNAQGEIVEGIYTDLPNSVYHALDAHSSTGIKTFAKGRHHYFRQYLSDVCRQRTKQQEYTFDAGTYGHMLVLEPENFHGNFMRNPVPDDFPDIELIESIPQLKAALAKSNLPVSGAKAALIERLYAFDPSLPLFEKMREKAITDYLDLRYAKYLRTDVELDEMATFYGIDTSQTREKKIEEILAISPSQPIWEKLISQHVIDHIVWDDAMRVERSTRAHPKADWLISDGYAELTIIARCPTTGLLLKVRFDWLRNDAIGVDFKTTLSTNPTKFGYQIKDLRYDLQQVFYCYVANLAGIPVKHFCFVATEYKDADNCETFELSHKKVIESTEEMFDLLDEFKEALTSGNWYGHDRSRSTWVIEV
As to B4, the “Mean mKate+ (%), DYNLT1” value in test [1] turned out to be 4.6567%. In test [2], the “Mean mKate+ (%), HSP90AA1” value worked out at 7.0533%.

B5: Homolog_E3: RecE, Pantoea dispersa; SEQ ID NO: 120 (protein, listed as Pantoea dispersa)
chain: MEPGIYYDISNEAYHSGPGISKSQLDDIARSPAIFQWRKDAPVDTEKTKALDLGTDFHCAVLEPERFADMYRVGPEVNRRTTAGKAEEKEFFEKCEKDGAVPITHDDARKVELMRGSVMAHPIAKQMIAAQGHAEASIYWHDESTGNLCRCRPDKFIPDWNWIVDVKTTADMKKFRREFYDLRYHVQDAFYTDGYAAQFGERPTFVFVVTSTTIDCGRYPTEVFFLDEETKAAGRSEYQSNLVTYSECLSRNEWPGIATLSLPHWAKELRNV
As to B5, the “Mean mKate+ (%), DYNLT1” value in test [1] is 2.0533%. Besides, the “Mean mKate+ (%), HSP90AA1” value in test [2] was 6.7467%.

B6: Homolog_T8: RecT, Shewanella putrefaciens; SEQ ID NO: 127 (protein, listed as Shewanella putrefaciens)
chain: MQTAQVKLSVPHQQVYQDNFNYLSSQVVGHLVDLNEEIGYLNQIVFNSLSTASPLDVAAPWSVYGLLLNVCRLGLSLNPEKKLAYVMPSWSETGEIIMKLYPGYRGEIAIASNFNVIKNANAVLVYENDHFRIQAATGEIEHFVTSLSIDPRVRGACSGGYCRSVLMDNTIQISYLSIEEMNAIAQNQIEANMGNTPWNSIWRTEMNRVALYRRAAKDWRQLIKATPEIQSALSDTEY
On to B6, for which, in test [1], the “Mean mKate+ (%), DYNLT1” value was determined as 5.0400%. In addition, the “Mean mKate+ (%), HSP90AA1” value in test [2] worked out at 5.7133%.

B7: Homolog_E6: RecE, Providencia sp. MGF014; SEQ ID NO: 126 (protein, listed as Providencia sp.)
chain: MKEGIYYNISNEDYHNGLGISKSQLDLINEMPAEYIWSKEAPVDEEKIKPLEIGTALHCLLLEPDEYHKRYKIGPDVNRRTNVGKEKEKEFFDMCEKEGITPITHDDNRKLMIMRDSALAHPIAKWCLEADGVSESSIYWTDKETDVLCRCRPDRIITAHNYIIDVKSSGDIEKFDYEYYNYRYHVQDAFYSDGYKEVTGITPTFLFLVVSTKIDCGKYPVRTYVMSEEAKSAGRTAYKHNLLTYAECLKTDEWAGIRTLSLPRWAKELRNE
B7: the “Mean mKate+ (%), DYNLT1” value in test [1] turned out to be 5.4100%. Moreover, in test [2], the “Mean mKate+ (%), HSP90AA1” value was found to be 5.9300%.

B8: Homolog_T5: RecT, Providencia stuartii; SEQ ID NO: 123 (protein, listed as Providencia stuartii)
chain: MSNPPLAQADLQKTQGTEVKEKTKDQMLVELINKPSMKAQLAAALPRHMTPDRMIRIVTTEIRKTPALATCDMQSFVGAVVQCSQLGLEPGNALGHAYLLPFGNGKSKSGQSNVQLIIGYRGMIDLARRSGQIVSISARTVRQGDNFHFEYGLNENLTHVPGENEDSPITHVYAVARLKDGGVQFEVMTYNQIEKVRASSKAGQNGPWVSHWEEMAKKTVIRRLFKYLPVSIEMQKAVILDEKAEANIDQENATIFEGEYEEVGTDGK
Take B8: in test [1], the “Mean mKate+ (%), DYNLT1” value was 10.8267%. In addition, the “Mean mKate+ (%), HSP90AA1” value in test [2] amounted to 6.4300%.

B9: Homolog_E5: RecE, Providencia stuartii; SEQ ID NO: 124 (protein, listed as Providencia stuartii)
chain: EGIYYNISNEDYHNGLGISKSQLDLINEMPAEYIWSKEAPVDEEKIKPLEIGTALHCLLLEPDEYHKRYKIGPDVNRRTNAGKEKEKEFFDMCEKEGITPITHDDNRKLMIMRDSALAHPIAKWCLEADGVSESSIYWTDKETDVLCRCRPDRIITAHNYIVDVKSSGDIEKFDYEYYNYRYHVQDAFYSDGYKEVTGITPTFLFLVVSTKIDCGKYPVRTYVMSEEAKSAGRTAYKHNLLTYAECLKTDEWAGIRTLSLPRWAKELRNE
Take B9: the “Mean mKate+ (%), DYNLT1” value in test [1] is 4.4667%. Besides, the “Mean mKate+ (%), HSP90AA1” value in test [2] was determined as 6.0233%.

B10: Homolog_E4: RecE, Type-F symbiont of Plautia stali; SEQ ID NO: 122 (protein)
chain: MQPGIYYDISNEDYHGGPGISKSQLDDIAISPAIYQWRKHAPVDEEKTAALDLGTALHCLLLEPDEFSKRFEIGPEVNRRTTAGKEKEKEFMERCEAEGVTPITHDDNRKLRLMRDSAMAHPIARWMLEAQGNAEASIYWNDRDTGVLSRCRPDKIITDFNWCVDVKSTADIIKFQKDFYSYRYHVQDAFYSDGYESHFDETPTFAFLAVSTSIDCGRYPVQVFIMDQQAKDAGRAEYKRNIHTFAECLSRNEWPGIATLSLPYWAKELRNE
modifications: Type-F symbiont of Plautia stali
For B10, the “Mean mKate+ (%), DYNLT1” value in test [1] was 5.7200%. Also, the “Mean mKate+ (%), HSP90AA1” value in test [2] was determined as 6.2567%.

B11: Homolog_T6: RecT, Providencia sp. MGF014; SEQ ID NO: 125 (protein, listed as Providencia sp.)
chain: MSNPPLAQSDLQKTQGTEVKVKTKDQQLIQFINQPSMKAQLAAALPRHMTPDRMIRIVTTEIRKTPALATCDMQSFVGAVVQCSQLGLEPGNALGHAYLLPFGNGKAKSGQSNVQLIIGYRGMIDLARRSNQIISISARTVRQGDNFHFEYGLNEDLTHTPSENEDSPITHVYAVARLKDGGVQFEVMTYNQVEKVRASSKAGQNGPWVSHWEEMAKKTVIRRLFKYLPVSIEMQKAVVLDEKAEANVDQENATIFEGEYEEVGTDGN
With B11, the “Mean mKate+ (%), DYNLT1” value in test [1] is given as 9.0533%. In test [2], the “Mean mKate+ (%), HSP90AA1” value is 6.2500%.

B12: Homolog_T7: RecT, Providencia alcalifaciens DSM 30120; SEQ ID NO: 143 (protein, listed as Providencia alcalifaciens)
chain: MKAQLAAALPKHITSDRMIRIVSTEIRKTPSLANCDIQSFIGAVVQCSQLGLEPGNALGHAYLLPFGNGKSDNGKSNVQLIIGYRGMIDLARRSGQIISISARTVRQGDNFHFEYGLNENLTHIPEGNEDSPITHVYAVARLKDEGVQFEVMTYNQIEKVRDSSKAGKNGPWVTHWEEMAKKTVIRRLFKYLPVSIEMQKAVILDEKAEANIEQDHSAIFEAEFEEVDSNGN
As for B12, the “Mean mKate+ (%), DYNLT1” value in test [1] came out at 5.6467%. Also, the “Mean mKate+ (%), HSP90AA1” value in test [2] came out at 5.3700%.

B13: Homolog_E7: RecE, Providencia alcalifaciens DSM 30120; SEQ ID NO: 144 (protein, listed as Providencia alcalifaciens)
chain: MNEGIYYDISNEDYHHGLGISKSQLDLIDESPADFIWHRDAPVDNEKTKALDFGTALHCLLLEPDEFQKRFRIAPEVNRRTNAGKEQEKEFLEMCEKENITPITNEDNRKLSLMKDSAMAHPIARWCLEAKGIAESSIYWKDKDTDILCRCRPDKLIEEHHWLVDVKSTADIQKFERSMYEYRYHVQDSFYSDGYKSLTGEMPVFVFLAVSTVINCGRYPVRVFVLDEQAKSVGRITYKQNLFTYAECLKTDEWAGIRTLSLPSWAKELKHEHTTAS
For B13, the “Mean mKate+ (%), DYNLT1” value in test [1] was 4.4733%. In addition, the “Mean mKate+ (%), HSP90AA1” value in test [2] amounted to 5.7367%.
